Measurements from publication PMC6887548.

Target: MCM helicase hexamer (Mcm2-7) (yeast) (UniProt P29469)
Assay: negative-stain EM

With “ORC variant lacking the N-terminal 119 amino acids of Orc6, P54784;P32833;P54790;P54791;P50874;P38826” the decrease of MO formation against wild type ORC was 50%.
